Where a chain is given by its changes, count along the chain named. In names and notes the source's numbering stands.
What was measured:
GST-E2F1 [1] = target: T1, GST-E2F1 (UniProt Q01094 1-437); assay: EMSA; EMSA as in ref 34 (buffer, pH, temperature not given); 1.8 ug GST-E2F1 per reaction, 24 ng/ul ds mutant adenovirus E2 E2F-site oligo as nonspecific competitor; details: protein: recombinant, label: 32P
GST-E2F1 [2] = target: T1, GST-E2F1; assay: competition; 100-fold excess vs EBP1 -158 and -113 probes; EMSA as in ref 34 (buffer, pH, temperature not given); 1.8 ug GST-E2F1 per reaction, 24 ng/ul ds mutant adenovirus E2 E2F-site oligo as nonspecific competitor; details: protein: recombinant, blunt
GST-E2F1 [3] = target: T1, GST-E2F1; assay: EMSA; additional low-mobility complex; EMSA as in ref 34 (buffer, pH, temperature not given); 1.8 ug GST-E2F1 per reaction, 24 ng/ul ds mutant adenovirus E2 E2F-site oligo as nonspecific competitor; details: protein: recombinant; label: 32P; blunt
GST-E2F1 [4] = target: T1, GST-E2F1; assay: competition; 100-fold excess vs EBP1 -158 and -113 probes; substantially reduced; EMSA as in ref 34 (buffer, pH, temperature not given); 1.8 ug GST-E2F1 per reaction, 24 ng/ul ds mutant adenovirus E2 E2F-site oligo as nonspecific competitor; details: protein: recombinant; blunt
[5] = terminal G:G mismatch as printed

T1 sequence (Q01094 whole entry): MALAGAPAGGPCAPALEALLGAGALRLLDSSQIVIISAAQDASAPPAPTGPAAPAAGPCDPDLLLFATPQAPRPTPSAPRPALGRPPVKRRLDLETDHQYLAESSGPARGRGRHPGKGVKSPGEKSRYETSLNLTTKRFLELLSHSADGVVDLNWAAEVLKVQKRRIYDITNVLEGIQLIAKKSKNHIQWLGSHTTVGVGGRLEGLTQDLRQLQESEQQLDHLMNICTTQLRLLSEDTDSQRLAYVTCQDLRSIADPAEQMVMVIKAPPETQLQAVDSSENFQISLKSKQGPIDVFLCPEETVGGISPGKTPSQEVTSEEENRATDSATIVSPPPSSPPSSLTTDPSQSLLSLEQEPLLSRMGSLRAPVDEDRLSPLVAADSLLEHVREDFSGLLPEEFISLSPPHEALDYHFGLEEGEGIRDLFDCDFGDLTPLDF

B1: EBP1 -158* (dsDNA)
DNA 1: GCTTAGGAAAAAAAGAGGCAGGCTGGGAATTGTAGTTC
DNA 2: GAACTACAATTCCCAGCCTGCCTCTTTTTTTCCTAAGC
**Q.** Does B1 bind (GST-E2F1 [1]; blunt)?
**A.** no binding

B2: EBP1 -113* (dsDNA)
DNA 1: TAGTTCGAAGGCCCTCGAGAAAAAATAGAGTCTGG
DNA 2: GCAGACTCTATTTTTTCTCGAGGGCCTTCGAACTA
**Q.** Does B2 bind (GST-E2F1 [1]; [5])?
**A.** no binding

B3: N-myc E2F site (dsDNA)
DNA 1: GATCCTTTTGGCGCGAAAGGCTTAGATC
DNA 2: GATCTAAGCCTTTCGCGCCAAAAGGATC
**Q.** Does B3 bind (GST-E2F1 [2])?
**A.** binds

B4: EBP1 -155 probe (-155 to -120) (dsDNA)
DNA 1: GAGCTTCGAACTACAATTCCCAGCCTGCCTCTCGCGCTG
DNA 2: CAGCGCGAGAGGCAGGCTGGGAATTGTAGTTCGAAGCTC
**Q.** Does B4 bind (GST-E2F1 [1]; blunt)?
**A.** no binding

B5: EBP1 -166 (-158*) (dsDNA)
DNA 1: TTAGGAAAAAAAGAGGCAGGCTGGGAATTGTAGTTCGAAGGCCCTCGAGAGCGGCTAGAGTC
DNA 2: GACTCTAGCCGCTCTCGAGGGCCTTCGAACTACAATTCCCAGCCTGCCTCTTTTTTTCCTAA
**Q.** Does B5 bind (GST-E2F1 [1]; blunt)?
**A.** binds

B6: EBP1 -166 (both*) (dsDNA)
DNA 1: B5 DNA 1 with G51A, C52A, G53A, G54A, C55A
DNA 2: B5 DNA 2 with G8T, C9T, C10T, G11T, C12T
**Q.** Does B6 bind (GST-E2F1 [1]; blunt)?
**A.** no binding

B7: EBP1 -166 wt (-166 to -104) (dsDNA)
DNA 1: B5 DNA 1 with A7G, A8C, A9G, A10C, A11G
DNA 2: B5 DNA 2 with T52C, T53G, T54C, T55G, T56C
**Q.** Does B7 bind (GST-E2F1 [3])?
**A.** binds

B8: EBP1 -136 probe (-136 to -100) (dsDNA)
DNA 1: TAGTTCGAAGGCCCTCGAGAGCGGCTAGAGTCTGG
DNA 2: GCAGACTCTAGCCGCTCTCGAGGGCCTTCGAACTA
**Q.** Does B8 bind (GST-E2F1 [1]; [5])?
**A.** binds

B9: DHFR E2F site mutant (dsDNA)
DNA 1: CTAGAGCAATTTAAAAACAAACTTGGATC
DNA 2: GATCCAAGTTTGTTTTTAAATTGCTCTAG
**Q.** Does B9 bind (GST-E2F1 [2])?
**A.** no binding

B10: TIMELESS E2F site (dsDNA)
DNA 1: CAGAAAATTCATAGCGCTGTGATTTTTAGATC
DNA 2: GATCTAAAAATCACAGCGCTATGAATTTTCTG
**Q.** Does B10 bind (GST-E2F1 [4])?
**A.** binds

B11: TIMELESS E2F site mutant (dsDNA)
DNA 1: B10 DNA 1 with G14A, C15A, G16A, C17A
DNA 2: B10 DNA 2 with G16T, C17T, G18T, C19T
**Q.** Does B11 bind (GST-E2F1 [2])?
**A.** no binding

B12: EBP1 -166 (-113*) (dsDNA)
DNA 1: TTAGGAGCGCGAGAGGCAGGCTGGGAATTGTAGTTCGAAGGCCCTCGAGAAAAAATAGAGTC
DNA 2: GACTCTATTTTTTCTCGAGGGCCTTCGAACTACAATTCCCAGCCTGCCTCTCGCGCTCCTAA
**Q.** Does B12 bind (GST-E2F1 [1]; blunt)?
**A.** binds

B13: DHFR E2F site (dsDNA)
DNA 1: CTAGAGCAATTTCGCGCCAAACTTGGATC
DNA 2: GATCCAAGTTTGGCGCGAAATTGCTCTAG
**Q.** Does B13 bind (GST-E2F1 [2]; label: 32P as probe)?
**A.** binds

B14: EBP1 -168 probe (-168 to -130) (dsDNA)
DNA 1: GCTTAGGAGCGCGAGAGGCAGGCTGGGAATTGTAGTTC
DNA 2: GAACTACAATTCCCAGCCTGCCTCTCGCGCTCCTAAGC
**Q.** Does B14 bind (GST-E2F1 [1]; blunt)?
**A.** binds
